Experimental data taken from the supplement of paper PMC9170038.

Each sequence was assayed on K4 kissing-loop RNA reporter (assay: apparent KD of K4 kissing-loop reporter; higher = weaker reporter binding). Settings: Eterna round: R107; input ligand: theophylline 20 uM.
Description: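 RNA-MaP round R107: designed RNA switches with theophylline, tryptophan, arginine or FMN aptamers are transcribed on-chip within common flanks. They are titrated with a labelled K4 kissing-loop RNA reporter in RNA-MaP buffer (100 mM Tris pH 7.5, 80 mM KCl, 4 mM MgCl2), without ligand or with the indicated ligand. Median apparent KD per design.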
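Note: bound reporter read as fluorescence of individual clusters on recovered sequencing chips by microscopy, with normalized cluster intensities fitted with a binding model.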

Row | Sequence | apparent KD of K4 kissing-loop reporter [nM]
1 | UAAGUGAUUCACAAGCUAGAGUUACUCGAAGGAGCGACGAAUUCGUCAGGUAGGUCGCGAGUGAUGUUCGCAUGCUCUAGCAAAU [AK1 Exc Arginine A] | 689
2 | UUUAAAUAUAGUGAUGUUAUAUAACAAUGACGAGGACCGGUACGGCCGCCACUCGAGAGAGAUAAUGGUCUAUAGAAUCUAUAGC [AstrosSSTryA#4] | 870
3 | GCGUCUUGGUCGGCCGCCACUGAGCCUAGUCACACUCUUGAGUGAUGUUGAAGAUGGUGGACUUGCAGGACCGGGACCACGGACG [theeternabot_sameState_KL_Trp_B_41] | 569
4 | UUGGGCAACCGAGAUACCAGUCAAAUCGCUCUGGAGUGAUGUUCCGGAACAUGCGGAGAAGACCCUUGGCAGCUCAAGACGGACA [Exclusion Theophylline B GF 1] | 113
5 | AGACUACCACACUGUCAAUAGACAGUGUACUAGGAUAUGCUGAUAAGCAGAAGGAGUGAUGUUCCCAGGUAGUCAAUAAAAUAAU [FmnAX 13 U28+C66] | 270
6 | AACUAUUAAUGAAUUACAUUUUAUUUUUCUCGAGGACCGGUACGGCCGCCACUCGUACUAUAGUGAUGUUAUAGAUAAGUCCUAA [JR_ExcTryptoA_Sub021] | 177
7 | UGUAUGUGAUUUGAUACCAGACCAGGUGGAGGAAUCUGAGUGAUGUUCAGGUAGGUUCUGGUCCCUUGGCAGCAAAUCGCAUACU [KL-SSTheoB19] | 150
8 | UGACUGGACUGAAGGAGCGCGCGAGACAAAGUCUCGAACUUCUAGUGAUGUUAGAAAAUAACGCAGGUAGGUCGCAGUCUAGUCU | 147

Same assay, conditions: Eterna round: R107; input ligand: tryptophan 2.4 mM

Row | Sequence | apparent KD of K4 kissing-loop reporter [nM]
9 | GCCGUAGAUGGAAGGAGCGUGCGUGAAGUGAUGUUUCACGAAGAGUUUUCCACCUUAUAUGCACAGGUAGGUCGCCAUCUACGGC | 95.2
10 | UGAUACCAGACGGCCGCCACUCCCGUAAGUCAAAGACUUACGAAGAAGGUUUUUUAGUGAUGUUGGAGGACCGGGUCUGGUAUCU [FiskerMod 19 - Jieux - Exclusion - Tryptophan B] | 1100
11 | GUAGGCUACCGAGGAUAUAGUCCAACGGAGUGAUGUUCCGUCUUUCUUCAUCAUUAACGUUGUGAUCUAGAAGGCGGUAGCCUAC | 687
12 | UGUCAUUGGUCGGCCGCCACUCCAUAAUGAGUGAUGUUCUAAAAGACGGAUCGAAAGAUCUGUCGGAGGACCGGGACCGAUGACU [FiskerMod 5 - Jieux - Same State - Tryptophan B] | 267
13 | UGAUACCAGACUGAUACCAGCCAGUGAUGUUGGCUAAGCCGAAGAGGUGUCAUAGACACCGGCCCUUGGCAGCAGUCUGGUAUCU [#07 K4 Theophylline B Exclusion] | 117
14 | AUUAAUUUCAGAGGAUAUCGUGAUUUUGUUUAAUUUAUUCAUUUGUGCAGUGAUGUUGCUAAUAUUCGAGAAGGCUGAUUUAUAA [whbob_Ex_FMNB__2th225] | 53.3
15 | UGAUAGGACAGAAGGAGCGGUAGUGAUGUUACCAAAAGAAUAAGGUGUCAAAAGACACCCUACCAGGUAGGUCGCUGUCCUAUCU | 179
16 | GGAUAGGACAGAGGAUAUCUCUAAAGAGGCAAGAAAACUUGUCUCAGAGAUGACUCAGUGAUGUUGAGAGAAGGCUGUCCUAUCG [FmnBX 7 - #SwitchBubble #StaticStem] | 152
17 | ACAGGAUCGAAAGAUCCUGAGCAGUCUAACCGAGGACCGGUACGGCCGCCACUCGGAGUGAUGUUCCGAGGACUGCAAAAUAAAA [#SwitchBubble 2 #CoaxialStacking] | 795
18 | CAUAGGAAACUAUGUAUCUCUCUUACUGAAGGAGCGCGUGAAAACGCAGGUAGGUCGCAGAAUUUAAUAGAGAGUGAUGUUCUCU [Ex Arginine A K4 7] | 208
19 | GUAUCGCUAGGAGGAUAUUUCGUUUUUCAUAGCAAUGGCUAUGCGGAGUGAUGUUCCGAUUUACCGAAAGAAGGCCUAGUGAUAC [FMN B 25] | 98.8
20 | AAGGUAAGUGCAUACAAAGUGAUGUUUUGUCGAGGACCGGUACGGCCGCCACUCGCCCAGUUAAGUGACCGACGUCAACGAAUAA [theeternabot_exclusion_KL_Trp_A_21] | 498
21 | GCCAGUGAUGUUGGCGAACCAACGCAUGCAGAGGAUAUUCGUUCGGGAAGAAGGCUGCAGCGUUCUCUCCCGCAGUGAUGUUGCG [Same State FMN A GF 25] | 150
22 | CAAGGGCAAGUCGAUACCAGAGACACAUACCCGCAGUGAUGUUGCAGGAAACAGUUACUUCUCCCUUGGCAGCGAAUGCGACUUC [theeternabot_sameState_KL_Theo_B_45] | 332
23 | AGCGAUGUUUUCUCUAAGAGUGAUGUUUUUCGAGGACCGGUACGGCCGCCACUCGAAUAAAGUGUGUGGUAGUGAGCUGUUGACA [#17 K4 Tryptophan A Exclusion] | 804
24 | AUAGGAGUGAUGUUCCUUAGUUUCUCCGAUACCAGUAUGGAAACAUACCCUUGGCAGCGGGAAACCGCAGAUUAGGAAACUAGUC [Theophylline A K4 6] | 194

Row | Sequence | apparent KD of K4 kissing-loop reporter [nM]
25 | ACGUCUCGUUAAAUCGUGGUUUCGAUCGAUACCAGUAGCGAGAGUUACCCUUGGCAGCGAAAUGAGUGAUGUUCAUGAAAGAAGA [KL-XTheoA9] | 57.3
26 | GUAUCGCUAGGAGGAUAUUCCGUUUUUCAUAGCAAUGGCUAUGCGGAGUGAUGUUCCGAUUUACCGGAAGAAGGCCUAGUGAUAC [FMN B 24] | 114
27 | GGGCGGCAGACGGCCGCCACUCAUAGCAGCCAGUGAGUGAUGUUCGUGGCGGAGUGAUGUUCCUAGAGGACCGGGUUUGUUGUUC [Same State Tryptophan B GF 19] | 596
28 | AAGCAGUCACUCUAAGCCAUCGAAGAUGGUCGAGGACCGGUACGGCCGCCACUCGGAGUGAUGUUCCGAAGACUGCAAAAUAAAA | 249
29 | GUUUUAUAGGAGGAUACCAGUACAAAUAAAGUGCAUUAAUAGUAGAGUGAUGUUCUAAAGUACCCUUGGCAGCUUAGUUUAAGUU [#26 K4 Theophylline B Exclusion] | 100
30 | ACCCGUAGGAUACGGAGGUGUAAAUGGGUAUAGGAUAUCUAGAAAUAGAGAAGGAUACCAGUGAUGUUGGUUCCGUAUAUCUUAA | 119
31 | GGAUAGGACAGAGGAUAUCCUGAGUCUACAAAGUAGGCUCAUAAAGGAUGAAUCCUAGUGAUGUUAGGAGAAGGCUGUCCUAUCG [FmnBX 16 - #SwitchBubble #StaticStem #Palindromic] | 88.7
32 | UCAUGAGAGACGGCCGCCACUGAAGCAGCUCUGUAAGAGCUGCAACAGUAGAGUGAUGUUCUGCGCAGGACCGGGUCGUCAUGAA [KL-SSTryp-B9] | 450
33 | UAAGUGAUUCACAAGCUAGAGUUACUCGAAGGAGCGACGAAUUCGUCAGGUAGGUCGCGAGUGAUGUUCGCAUGCUCUAGCAAAU [AK1 Exc Arginine A] | 650
34 | UUUAAAUAUAGUGAUGUUAUAUAACAAUGACGAGGACCGGUACGGCCGCCACUCGAGAGAGAUAAUGGUCUAUAGAAUCUAUAGC [AstrosSSTryA#4] | 508
35 | GCGUCUUGGUCGGCCGCCACUGAGCCUAGUCACACUCUUGAGUGAUGUUGAAGAUGGUGGACUUGCAGGACCGGGACCACGGACG [theeternabot_sameState_KL_Trp_B_41] | 450
36 | UUGGGCAACCGAGAUACCAGUCAAAUCGCUCUGGAGUGAUGUUCCGGAACAUGCGGAGAAGACCCUUGGCAGCUCAAGACGGACA [Exclusion Theophylline B GF 1] | 91.2
37 | AGACUACCACACUGUCAAUAGACAGUGUACUAGGAUAUGCUGAUAAGCAGAAGGAGUGAUGUUCCCAGGUAGUCAAUAAAAUAAU [FmnAX 13 U28+C66] | 225
38 | AACUAUUAAUGAAUUACAUUUUAUUUUUCUCGAGGACCGGUACGGCCGCCACUCGUACUAUAGUGAUGUUAUAGAUAAGUCCUAA [JR_ExcTryptoA_Sub021] | 71.3
39 | UGUAUGUGAUUUGAUACCAGACCAGGUGGAGGAAUCUGAGUGAUGUUCAGGUAGGUUCUGGUCCCUUGGCAGCAAAUCGCAUACU [KL-SSTheoB19] | 160
40 | UGACUGGACUGAAGGAGCGCGCGAGACAAAGUCUCGAACUUCUAGUGAUGUUAGAAAAUAACGCAGGUAGGUCGCAGUCUAGUCU | 147
